Assays:
[1] = system: purified human CA125; test: CA125 binding analysis by ELISA (periplasmic extracts); conditions: commercially purified human CA125
Text: A) CA125 binding activity of anti-CA125 OC125, VK-8-1.9 and VK-8-4.5 scFvs present in periplasmic extracts of bacteria as well as anti-Bcl2 4D7 scFv compared to parental Mabs OC125 and VK-8 and to PBS and periplasmic extract from bacteria, uninduced, IPTG-induced and controls.
The inventors constructed single-chain antibody libraries derived from the OC125 and VK-8 hybridoma cell lines specific for CA125. The two scFv libraries were screened for CA125 binding activity by ELISA using commercially purified human CA125. […] The inventors hypothesized that if those scFvs (CA125 binders) once expressed intracellularly were localized to and retained within the ER or the Golgi then CA125 antigen would be entrapped during synthesis and thus be unable to localize at cell surface and interact with other intracellular and/or extracellular proteins to achieve its function(s). The scFvs were targeted to the ER or trans-median Golgi by sequence fusion with an Igκ secretion leader and a KDEL signal or fusion with the N-terminal 81 amino acids of human beta 1,4-galactosyltransferase, a protein resident of the trans-medial Golgi (47-49) in addition ot a c-myc tag at the C-terminus.
Binding analysis by ELISA—Periplasmic extracts were prepared as previously described (29). […] The OD was read at 450 ηm in an ELISA plate reader.

[2] = target: T1, CA125 (Homo sapiens, UniProt Q8WXI7); test: Co-immunoprecipitation of scFvs with anti-CA125 MAbs from transiently transfected NIH:OVCAR-3 cells; assay type: binding; conditions: transient transfection in NIH:OVCAR-3
T1 construct: human ovarian cancer cell lines OVCAR-3 (high expresser of CA125); endogenous in cells; host or cells: NIH:OVCAR-3
Text: C) Immunoprecipitation and co-immunoprecipitation of Golgi- and ER-targeted OC125-3.11 scFv from transient transfection of pSTCF.GOLGI-OC125-3.11 and pSTCF.KDEL-OC125-3.11 in NIH:OVCAR-3 human ovarian cancer cells using anti-c-myc, anti-CA125 Mabs OC125 and VK-8, western blot probed with anti-c-myc 9E10 antibody.
D) Immunoprecipitation and co-immunoprecipitation of Golgi- and ER-targeted VK-8-1.9 scFv from transient transfection of pSTCF-GOLGI-VK8-1.9 and pSTCF.KDEL-VK8-1.9 in NIH:OVCAR-3 human ovarian cancer cells using anti-c-myc, anti-CA125 Mabs OC125 and VK-8, Western blot probed with anti-c-myc 9E10 antibody.
E) Immunoprecipitation and co-immunoprecipitation of ER-targeted VK-8-4.5 scFv from transient transfection of pSTCF.KDEL-VK8-4.5 in NIH:OVCAR-3 human ovarian cancer cells using anti-c-myc, anti-CA125 Mabs OC125 and VK-8, western blot prober with anti-c-myc 9E10 antibody. […]
Immunoprecipitation—NIH-OVCAR-3 cells were transiently transfected with the various scFv constructs using commercially available FuGene 6 transfection agent using the manufacturer's instruction. […] Protein concentration was measured by the Bradford method using the Bio-Rad protein assay according to the instruction provided by the manufacturer. […] Agarose or sepharose beads were pelleted and supernatants were analyzed by immunoblots for the presence of the various scFvs.

[3] = target: T1, CA125; test: Immunofluorescence of CA125 at the cell surface, transient transfection of OVCAR-3 cells; assay type: cell-based; conditions: transiently transfected OVCAR-3 cells
Text: B) NIH:OVCAR-3 cellswere transiently transfected with pSTCF.Golgi-OC125-3.11 or pSTCF.KDEL-VK-8-1.9 constructs and 48 hrs later the cells were fixed in ice-cold methanol. Expression of scFvs and CA125 was detected using the anti-c-myc A14 polyclonal antibody and anti-CA125 M11 monoclonal antibody. Oregon green anti-rabbit and Texas red anti-mouse secondary antibodies were used.
Anti-CA125 scFvs act therefore act as potent negative modulators of CA125.
Immunofluorescence—Transiently transfected NIH-OVCAR-3 cells or stable NIH:OVCAR-3 clones expressing the various anti-CA125 scFvs were grown on glass slide until a 50% confluence was reached. […] Slides were next washed 3 times in cold PBS, incubated for 30 min at room temperature with anti-mouse or anti-rabbit secondary antibodies coupled to Texas Red or Oregon green (1:1000), washed with PBS and mounted for visualization by fluorescence microscopy. Expression of the various anti-CA125 scFvs and CA125 was detected using anti-c-myc antibody (9E10, 1:500) and OC125 antibody (1:500). Localization of the scFvs was determined by comparing their pattern of expression with that of calreticulin and ADP-ribosylation factor for ER and Golgi localization using anti-calreticulin antibody (1:10000) anti-calreticulin and anti-ADP-ribosylation factor (1:400).

B1: OC125-3.11: anti-CA125 single-chain antibody derived from the OC 125 monoclonal antibody, fragment coded by SEQ ID NO 2 (protein)
chain: QVQLQQSGTVLARPGASVKMSLQASGYTFTSYWMHWVKQRPGQGLEWIGAIYPGNSDTSYNQKFKGKAKLTAVTSTSTAYMELSSLTNEDSAVYYCTRSYDWYFDVWGQGTTVTVSSGGGGSGGGGSGGGGSDIELTQSPAILSVSPGERVSFSCRASQSIGTDMHWYQQRTNGSPRLLIKYASESISGIPSRFSGSGSGTDFTLSINSVESEDIADYYCQQSYSWPLTFGAGTKLEIK
modifications: Golgi targeting; VH-linker-VL portion of OC125-3.11
CA125 binding activity by ELISA [1]: bound to CA125
co-immunoprecipitation with CA125 using anti-CA125 OC125 and VK-8 MAbs [2]: co-immunoprecipitated
expression of CA125 at the cell surface [3]: lost expression of CA125 at the cell surface

From patent US20060134116A1, “Ca 125 tumor antigen function and uses thereof” (Universite De Sherbrooke, priority 2002, published 2006)
